Assay results taken from patent US20240092884A1 (CHILDREN S HOSPITAL OF FUDAN UNIVERSITY, published 2024).

B1: ANGPTL3-FLD-biotin (ligand)
chain: RIDQDNSSFDSLSPEPKSRFAMLDDVKILANGLLQLGHGLKDFVHKTKGQINDIFQKLNIFDQSFYDLSLQTSEIKEEEKELRRTTYKLQVKNEEVKNMSLELNSKLESLLEEKILLQQKVKYLEEQLTNLIQNQPETPEHPEVTSLKTFVEKQDNSIKDLLQTVEDQYKQLNQQHSQIKEIENQLRRTSIQEPTEISLSSKPRAPRTTPFLQLNEIRNVKHDGIPAECTTIYNRGEHTSGMYAIRPSNSQVFHVYCDVISGSPWTLIQHRIDGSQNFNETWENYKYGFGRLDGEFWLGLEKIYSIVKQSNYVLRIELEDWKDNKHYIEYSFYLGNHETNYTLHLVAITGNVPNAIPENKDLVFSTWDHKAKGHFNCPEGYSGGWWWHDECGENNLNGKYNKPRAKSKPERRRGLSWKSQNGRLYSIKSTKMLIHPTDSESFEHHHHHHHHHH
modifications: biotin-labeled (sites not given)
notes: also called ANGPTL3-Biotin; Biotin-ANGPTL3-FLD
B2: anti-ANGPTL3 monoclonal antibody (prepared in Example 2) (antibody, IgG1, V domains shown)
VH: QVQLKESGPGLVAPSQSLSITCTVSGFSLTTYGVSWVRQPPGKGLEWLGVIWGDGNTNYHSALISRLSISKDNSKSQVFLKLNSLQTDDTATYYCAKGGPYGNYVPFDYWGQGTTLTVSS
VL: DIVLTQSPASLAVSLGQRATISCRASESVDSYGNSFMHWYQQKPGQPPKLLIYRASNLESGIPARFSGSGSRTDFTLTINPVEADDVATYYCQQSDEEPPTFGGGTNLEIK
notes: Recombinant antibody expressed transiently in ExpiCHO-S cells; also called anti-ANGPTL3-FLD mAb; mAb

Key:
[1] = target: human ANGPTL3 protein (SEQ ID No. 19) (human) (UniProt Q9Y5C1); test: indirect ELISA, negative control supernatant, column A (taken as plate-coated ANGPTL3 of SEQ ID No. 19)
[2] = target: T1, Integrin αvβ3 recombinant protein (R&D, 3050-AV-050) (UniProt P06756 31-992; P05106 27-718); test: ELISA: integrin αvβ3 coated at 1 µg/mL, ANGPTL3-FLD-biotin titrated, detected with peroxidase-labeled streptavidin, OD450
T1 construct: Bought heterodimer
T1 sequence (P06756 31-992, chain 1 of 2): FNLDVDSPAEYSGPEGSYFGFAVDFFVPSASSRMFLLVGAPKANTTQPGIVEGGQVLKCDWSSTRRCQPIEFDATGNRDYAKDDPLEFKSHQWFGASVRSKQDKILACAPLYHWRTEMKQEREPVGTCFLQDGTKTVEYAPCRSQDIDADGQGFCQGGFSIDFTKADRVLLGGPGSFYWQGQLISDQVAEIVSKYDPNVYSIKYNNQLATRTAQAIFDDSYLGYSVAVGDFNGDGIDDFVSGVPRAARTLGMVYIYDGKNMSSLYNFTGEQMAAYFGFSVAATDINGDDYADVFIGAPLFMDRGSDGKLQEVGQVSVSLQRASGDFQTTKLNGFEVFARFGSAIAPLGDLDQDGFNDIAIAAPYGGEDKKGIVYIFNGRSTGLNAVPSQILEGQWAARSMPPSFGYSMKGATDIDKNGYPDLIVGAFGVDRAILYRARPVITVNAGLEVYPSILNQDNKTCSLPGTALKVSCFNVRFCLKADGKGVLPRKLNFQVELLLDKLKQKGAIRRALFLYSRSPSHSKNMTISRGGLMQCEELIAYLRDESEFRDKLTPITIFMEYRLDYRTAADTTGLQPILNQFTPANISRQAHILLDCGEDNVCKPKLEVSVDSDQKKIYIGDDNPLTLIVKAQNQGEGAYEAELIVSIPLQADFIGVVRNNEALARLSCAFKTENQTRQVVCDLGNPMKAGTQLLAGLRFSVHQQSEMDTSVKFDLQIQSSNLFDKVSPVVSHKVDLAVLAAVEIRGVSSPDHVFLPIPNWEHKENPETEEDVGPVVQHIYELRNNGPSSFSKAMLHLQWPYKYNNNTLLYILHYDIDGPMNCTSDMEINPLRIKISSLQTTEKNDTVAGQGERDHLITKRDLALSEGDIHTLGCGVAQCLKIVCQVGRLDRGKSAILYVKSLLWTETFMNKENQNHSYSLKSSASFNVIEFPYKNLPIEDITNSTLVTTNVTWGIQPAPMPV
T1 sequence (P05106 27-718, chain 2 of 2): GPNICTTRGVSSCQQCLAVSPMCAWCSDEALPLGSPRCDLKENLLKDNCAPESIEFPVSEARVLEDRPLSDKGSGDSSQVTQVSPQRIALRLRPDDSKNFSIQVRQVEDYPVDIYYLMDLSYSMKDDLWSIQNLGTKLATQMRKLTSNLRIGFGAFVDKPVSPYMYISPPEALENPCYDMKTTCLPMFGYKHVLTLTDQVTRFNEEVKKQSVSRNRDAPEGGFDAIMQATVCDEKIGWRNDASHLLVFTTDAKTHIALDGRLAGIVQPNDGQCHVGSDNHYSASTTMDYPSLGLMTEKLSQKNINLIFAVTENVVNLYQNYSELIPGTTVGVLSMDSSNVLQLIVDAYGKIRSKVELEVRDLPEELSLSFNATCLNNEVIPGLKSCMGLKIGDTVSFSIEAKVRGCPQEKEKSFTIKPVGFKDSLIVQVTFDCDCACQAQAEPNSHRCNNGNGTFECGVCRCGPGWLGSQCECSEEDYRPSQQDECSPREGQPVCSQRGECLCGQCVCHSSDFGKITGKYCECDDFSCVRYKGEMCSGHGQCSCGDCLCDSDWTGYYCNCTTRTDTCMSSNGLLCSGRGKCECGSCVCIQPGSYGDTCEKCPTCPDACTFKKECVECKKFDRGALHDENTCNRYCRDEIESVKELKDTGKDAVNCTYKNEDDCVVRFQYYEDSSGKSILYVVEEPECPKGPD
From the text: (§1) Therefore, in order to evaluate the biological activity of the anti-ANGPTL3 monoclonal antibody, a competitive ELISA experiment was designed to evaluate the activity of the anti-ANGPTL3 monoclonal antibody blocking the interaction between ANGPTL3-FLD and integrin αvβ3. In the competitive experiment of the anti-ANGPTL3 monoclonal antibody blocking the interaction between ANGPTL3-FLD and integrin αvβ3, ANGPTL3-FLD was biotin-labeled, and the lowest saturated concentration of ANGPTL3-FLD-biotin binding to integrin αvβ3 was determined as 0.16 μg/mL by ELISA (as shown in FIG. 3A). The anti-ANGPTL3 monoclonal antibody was serially diluted with 0.16 μg/mL ANGPTL3-FLD-biotin solution as a diluent to obtain a series of concentrations. Theoretically, ANGPTL3-FLD-biotin can saturate integrin αvβ3 on a solid support in the absence of monoclonal antibody. However, when the epitope of ANGPTL3-FLD recognized by the monoclonal antibody overlaps with the epitope of ANGPTL3-FLD binding to integrin αvβ3, the antibody may compete with integrin αvβ3 for binding to ANGPTL3-FLD-biotin, so that ANGPTL3-FLD-biotin cannot bind to integrin αvβ3 on the solid support.
1. Plot a Curve of the Binding of Integrin αvβ3/ANGPTL3 [0093] […]

ANGPTL3-FLD-biotin = target: B1; test: competitive ELISA: antibody titrated in 0.16 µg/mL ANGPTL3-FLD-biotin, blocking its binding to plate-coated integrin αvβ3
From the text: as §1, with “Integrin αvβ3 is a key receptor for ANGPTL3-FLD to act on podocytes and mediate podocyte damage. Therefore,” for “Therefore,”
2. Detect a Half-Maximal Inhibitory Concentration of Anti-ANGPTL3-FLD mAb [0098] […]

[3] = target: T2, human ANGPTL3 protein (SEQ ID No. 19) (human, UniProt Q9Y5C1 18-460, limits assumed); test: SPR, Biacore T200, ANGPTL3 amine-coupled on a CM5 chip (852 RU), antibody injected at 6.25-800 nM, 25 °C, HBS-EP
T2 construct: also called ANGPTL3-FLD; protein (immunogen)
T2 sequence: B1 chain
Procedure: Angptl3 was immobilized on a CM5 sensor chip (Biacore T200, BR18010468 (GE Healthercare)) at 25° C. with HBS-EP as a running buffer (10 mM HEPES, 150 mM NaCl, 3 mM EDTA, 0.05% P20, pH 7.4). Flow cells 1 and 4 were activated on the surface of the sensor chip with fresh and mixed NHS (50 mmol/L) and EDC (200 mmol/L) for 420 s (10 μL/min). Then, Angptl3 diluted in 10 mmol/L NaAC (pH 5.0) waccording tojected into the flow cell 4 to achieve binding of about 852 Response Unit. In addition, Fc1 was set to blank. After the amine coupling reaction, 1 mol/L ethanolamine hydrochloride (pH 8.5) waccording tojected for 420 s to block the remaining active coupling sites on the chip surface.
The detection was carried out at 25° C. with HBS-EP as a running buffer. The anti-ANGPTL3 monoclonal antibody (prepared in Example 2) waccording tojected onto the surfaces of flow cells 1, 2, 3, and 4 as an association stage, and then the running buffer waccording tojected as a dissociation stage.
All data were processed using Biacore T200 evaluation software version 3.1. The flow cell 1 was used as a double reference for the subtractive response unit. For the detection results of the affinity of the anti-ANGPTL3 antibody to the ANGPTL3 protein, refer to FIG. 2.

Molecule: Negative Control Supernatant
- OD 450 [1]: 0.195 OD450

Molecule: B1
- EC50 (read off the curve) [2]: ~0.01 µg/mL

Molecule: B2
- EC50 (ANGPTL3-FLD-biotin): 1.57 µg/mL
- Kd [3]: 84.8 nM
- koff [3]: 0.00142 s⁻¹
- kon [3]: 16700 M⁻¹ s⁻¹
